# Values of other authors, collected in PMC5177622, “Multivalent Histone and DNA Engagement by a PHD/BRD/PWWP Triple Reader Cassette Recruits ZMYND8 to K14ac-Rich Chromatin” (Cell Reports, 2016).
# Read-outs that look alike come from different tables or passages of the source.
# Biological target: T1, human BAZ2B (UniProt: Q9UIF8 residues 2054-2168) WT (Homo sapiens, UniProt Q9UIF8)
# T1 construct: residues 2054- 2168; made in house
# T1 sequence (Q9UIF8 2054-2168): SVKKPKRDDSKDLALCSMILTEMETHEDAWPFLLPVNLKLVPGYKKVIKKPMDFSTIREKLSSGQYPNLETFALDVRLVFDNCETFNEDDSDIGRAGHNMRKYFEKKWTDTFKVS
# Conditions: ITC
# Procedure: Titrations were carried out in 20 mM HEPES pH 7.5 (at 25 °C), 200 mM NaCl and 15 °C while stirring at 1000 rpm. Peptides were titrated into protein solutions. Data related to Fi gur e 5. [P] [Pep] KD ΔHobs TΔS ΔG B AZ 2 B Peptide (μM) (μM) (μM) ...
# [1] = ref Filippakopoulos et al., 2012
"Kd (ref Philpott et al., 2011) [µM]","N (ref Philpott et al., 2011)","TΔS (ref Philpott et al., 2011) [kcal/mol]","ΔG (ref Philpott et al., 2011) [kcal/mol]","ΔHobs (ref Philpott et al., 2011) [kcal/mol]",Kd [1] [µM],N [1],TΔS [1] [kcal/mol],ΔG [1] [kcal/mol],ΔHobs [1] [kcal/mol],Substance
6.3 ± 0.2,1.00 ± 0.007,-0.12,-6.74,-6.86 ± 0.06,,,,,,"H3(5-25)K14ac: histone H3 residues 5-25 peptide bearing K14ac; data from Philpott et al., 2011"
,,,,,7.6 ± 0.3,0.99 ± 0.007,-2.27,-6.64,-8.91 ± 0.08,"H3(9-19)K14ac: histone H3 residues 9-19 peptide bearing K14ac; data from Filippakopoulos et al., 2012"
